Tests used:
Ps0 patients [1] = test: Ps0 study in anti-TNFα treatment groups: serum IL-19 and PASI; assay type: in vivo, human; conditions: for IL-19 serum levels (geometric mean) / % of patients with serum IL-19 concentration ≤ 21 pg/mL / % patients with serum IL-19 concentration ≤ 21 pg/mL achieving at least PASI 75 / % patients with serum IL-19 concentration ≤ 21 pg/mL not achieving at least PASI 75: 50 mg biweekly subcutaneous
Text: (§1) According to an exemplified embodiment, a sandwich ELISA assay for the sensitive detection of IL-19 is provided herein. According to an exemplified embodiment, a first IL-19 antibody (selected from Table 1, 2 or 3) is utilized as an IL-19 capture antibody and a second IL-19 antibody (selected from Table 1, 2 or 3) is utilized as an IL-19 reporter antibody. […] According to some embodiments, one milligram of the first IL-19 antibody (the capture antibody) is biotinylated using Pierce biotinylation kit (Cat #) and one milligram of the second IL-19 antibody (the reporter antibody) is labeled with ruthenium using MesoScale Discovery (MSD) kit for electrochemiluminescent (ECL) detection. According to such embodiment, labeled antibodies are evaluated using MALDI-TOF to ensure suitable labeling, and then diluted in 50% glycerol and stored at −20° C. prior to use.
(§2) Streptavidin-coated 96-well MSD plates are washed three times with TBST (Tris buffered saline containing 10 mmol/L Tris pH 7.40, 150 mmol/L NaCl with 1 mL Tween 20/L) and then blocked with TBS-T plus 1% BSA for 1 hour at room temperature. Plates are again washed and wells are then incubated with biotinylated IL-19 capture antibody (1 mg/L) for 1 hour. Thereafter, plates are again washed prior to patient sample testing.
(§3) During patient sample testing, a standard curve is generated using 50 μL of recombinant human IL-19 control standard (serially diluted IL-19 recombinant protein ranging from 100-0.0001 ng/L, and including a zero blank, in assay buffer of 50 mmol/L HEPES, pH 7.40, 150 mmol/L NaCl, 10 mL/L Triton X-100, 5 mmol/L EDTA, and 5 mmol/L EGTA). […] Patient samples (which, according to the present invention, may include blood, serum or plasma) are diluted 1:4 in assay buffer and added to respective wells. The plate is incubated overnight at 4° C. Following incubation, wells are aspirated and washed 3 times with TBST. Thereafter, 50 μL of ruthenium-labeled IL-19 detection antibody (0.5 mg/L) is added to the wells for a 1-hour incubation at room temperature. Following incubation, wells are aspirated and washed 3 times with TBST. Thereafter, 150 μl of 2×MSD read buffer is added. Ruthenium electrochemiluminescence in the wells is detected using a MSD Sector 6000 plate reader. Data is analyzed and IL-19 MSD immunoassay calibration curve fitting is performed using MesoScale Discovery software. SAS® software version 9.4 (PROC MIXED) is used for assessing treatment effects on IL-19 levels using a mixed effects model with an unstructured covariance matrix and log10 transformed IL-19 concentrations (SAS. Version 9.4 for UNIX; SAS Institute Inc.: Cary, N.C., 2016). Statistical analysis is generated with the ggplot and pROC packages using R version 3.3.3 statistical computing environment (www.R-project.org, Vienna, Austria, 2017).
A study of IL-19 levels, in serum of 35 Ps0 patients that were complete responders when treated with the FDA approved TNFα antagonist, entanercept, is performed. Treatment groups of 50 mg of etanercept (n=35) administered biweekly or placebo are compared. Administration of both treatment groups is subcutaneous. […] IL-19 levels are assessed for prognostic value with PASI improvement at weeks 4 and 12. Serum IL-19 concentration levels are presented in Table 11; prognostic values at week 4 showing correlations of IL-19 serum levels and PASI in psoriasis patients (21 ng/L indicates the upper limit of the normal range of IL-19 in healthy subjects) is presented in Table 12; prognostic values at week 12 showing correlations of IL-19 serum levels and PASI in psoriasis patients (21 ng/L indicates the upper limit of the normal range of IL-19 in healthy subjects) is presented in Table 13.

Ps0 patients [2] = test: Ps0 study in anti-IL-23 treatment groups: serum IL-19 and PASI; assay type: in vivo, human
Text: as §1, §2, §3
A study of IL-19 levels, in serum of Ps0 patients treated with a therapeutic antibody targeting IL-23, mirikizumab, is performed. […] Administration of each treatment group, as a single subcutaneous dose, occurs at day 0. […] IL-19 levels are also assessed for prognostic value with PASI improvement between visits 2 and 12. Serum IL-19 concentration levels are presented in Table 14; a comparative of serum levels at week 8 is presented in Table 15; and prognostic values at week 8 showing correlations of IL-19 serum levels and PASI in psoriasis patients (21 ng/L, indicates the upper limit of the normal range of IL-19 in healthy subjects) are presented in Table 16.

etanercept
IL-19 serum levels (geometric mean) (Ps0 patients [1]; Week 0 (baseline)): 98.2 pg/mL | IL-19 serum levels (geometric mean) (Ps0 patients [1]; Week 1): 42.3 pg/mL | % of patients with serum IL-19 concentration ≤ 21 pg/mL (Ps0 patients [1]; week 4): 37.9% (44/116) | % patients with serum IL-19 concentration ≤ 21 pg/mL achieving at least PASI 75 (Ps0 patients [1]; week 4): 22.7% (10/44) | % patients with serum IL-19 concentration ≤ 21 pg/mL not achieving at least PASI 75 (Ps0 patients [1]; week 4): 77.3% (34/44) | IL-19 serum levels (geometric mean) (Ps0 patients [1]; week 4): 24.3 pg/mL | % of patients with serum IL-19 concentration ≤ 21 pg/mL (Ps0 patients [1]; week 12): 42.9% (69/161) | % patients with serum IL-19 concentration ≤ 21 pg/mL achieving at least PASI 75 (Ps0 patients [1]; week 12): 49.3% (34/69) | % patients with serum IL-19 concentration ≤ 21 pg/mL not achieving at least PASI 75 (Ps0 patients [1]; week 12): 50.7% (35/69) | IL-19 serum levels (geometric mean) (Ps0 patients [1]; week 12): 14.2 pg/mL | median reduction in serum IL-19 (Ps0 patients [1]; after 1 week): greater than 40 pg/mL | median reduction in serum IL-19 (Ps0 patients [1]; at week 4): > 70 pg/mL

B1: mirikizumab (antibody, chains of the INN, looked up, V domains shown)
VH: QVQLVQSGAEVKKPGSSVKVSCKASGYKFTRYVMHWVRQAPGQGLEWMGYINPYNDGTNYNEKFKGRVTITADKSTSTAYMELSSLRSEDTAVYYCARNWDTGLWGQGTTVTVSS
VL: DIQMTQSPSSLSASVGDRVTITCKASDHILKFLTWYQQKPGKAPKLLIYGATSLETGVPSRFSGSGSGTDFTLTISSLQPEDFATYYCQMYWSTPFTFGGGTKVEIK
notes: therapeutic antibody targeting IL-23
IL-19 (geometric mean) serum levels (Ps0 patients [2]; 5 mg single subcutaneous dose, Day 1 (baseline)): 16.2 pg/mL | IL-19 (geometric mean) serum levels (Ps0 patients [2]; 5 mg single subcutaneous dose, Day 15): 13.9 pg/mL | IL-19 (geometric mean) serum levels (Ps0 patients [2]; 5 mg single subcutaneous dose, Day 29): 10.4 pg/mL | IL-19 (geometric mean) serum levels (Ps0 patients [2]; 5 mg single subcutaneous dose, Day 57): 13.2 pg/mL | IL-19 (geometric mean) serum levels (Ps0 patients [2]; 5 mg single subcutaneous dose, Day 71): 14.5 pg/mL | IL-19 (geometric mean) serum levels (Ps0 patients [2]; 20 mg single subcutaneous dose, Day 1 (baseline)): 37.2 pg/mL | IL-19 (geometric mean) serum levels (Ps0 patients [2]; 20 mg single subcutaneous dose, Day 15): 27.2 pg/mL | IL-19 (geometric mean) serum levels (Ps0 patients [2]; 20 mg single subcutaneous dose, Day 29): 25.4 pg/mL | IL-19 (geometric mean) serum levels (Ps0 patients [2]; 20 mg single subcutaneous dose, Day 57): 33.5 pg/mL | IL-19 (geometric mean) serum levels (Ps0 patients [2]; 20 mg single subcutaneous dose, Day 71): 28.4 pg/mL | IL-19 (geometric mean) serum levels (Ps0 patients [2]; 60 mg single subcutaneous dose, Day 1 (baseline)): 49.8 pg/mL | IL-19 (geometric mean) serum levels (Ps0 patients [2]; 60 mg single subcutaneous dose, Day 15): 9.0 pg/mL | IL-19 (geometric mean) serum levels (Ps0 patients [2]; 60 mg single subcutaneous dose, Day 29): 10.8 pg/mL | IL-19 (geometric mean) serum levels (Ps0 patients [2]; 60 mg single subcutaneous dose, Day 57): 11.9 pg/mL | IL-19 (geometric mean) serum levels (Ps0 patients [2]; 60 mg single subcutaneous dose, Day 71): 10.9 pg/mL | IL-19 (geometric mean) serum levels (Ps0 patients [2]; 120 mg single subcutaneous dose, Day 1 (baseline)): 52.4 pg/mL | IL-19 (geometric mean) serum levels (Ps0 patients [2]; 120 mg single subcutaneous dose, Day 15): 26.6 pg/mL | IL-19 (geometric mean) serum levels (Ps0 patients [2]; 120 mg single subcutaneous dose, Day 29): 25.2 pg/mL | IL-19 (geometric mean) serum levels (Ps0 patients [2]; 120 mg single subcutaneous dose, Day 57): 22.2 pg/mL | IL-19 (geometric mean) serum levels (Ps0 patients [2]; 120 mg single subcutaneous dose, Day 71): 18.2 pg/mL | IL-19 (geometric mean) serum levels (Ps0 patients [2]; 200 mg single subcutaneous dose, Day 1 (baseline)): 69.6 pg/mL | IL-19 (geometric mean) serum levels (Ps0 patients [2]; 200 mg single subcutaneous dose, Day 15): 36.0 pg/mL | IL-19 (geometric mean) serum levels (Ps0 patients [2]; 200 mg single subcutaneous dose, Day 29): 23.3 pg/mL | IL-19 (geometric mean) serum levels (Ps0 patients [2]; 200 mg single subcutaneous dose, Day 57): 21.9 pg/mL | IL-19 (geometric mean) serum levels (Ps0 patients [2]; 200 mg single subcutaneous dose, Day 71): 22.5 pg/mL | IL-19 (geometric mean) serum levels (Ps0 patients [2]; 300 mg, Week 0 (Baseline)): 106.5 pg/mL | IL-19 (geometric mean) serum levels (Ps0 patients [2]; 300 mg, Week 8 (End of induction)): 18.2 pg/mL | % of patients with serum IL-19 concentration ≤ 21 pg/mL (Ps0 patients [2]; 300 mg, week 8): 58.3% (28/48) | % patients with serum IL-19 concentration ≤ 21 pg/mL achieving at least PASI 75 (Ps0 patients [2]; 300 mg, week 8): 71.4% (20/28) | % patients with serum IL-19 concentration ≤ 21 pg/mL not achieving at least PASI 75 (Ps0 patients [2]; 300 mg, week 8): 28.6% (8/28) | IL-19 (geometric mean) serum levels (Ps0 patients [2]; 350 mg single subcutaneous dose, Day 1 (baseline)): 58.4 pg/mL | IL-19 (geometric mean) serum levels (Ps0 patients [2]; 350 mg single subcutaneous dose, Day 15): 35.2 pg/mL | IL-19 (geometric mean) serum levels (Ps0 patients [2]; 350 mg single subcutaneous dose, Day 29): 22.4 pg/mL | IL-19 (geometric mean) serum levels (Ps0 patients [2]; 350 mg single subcutaneous dose, Day 57): 23.7. pg/ml | IL-19 (geometric mean) serum levels (Ps0 patients [2]; 350 mg single subcutaneous dose, Day 71): 18.0 pg/mL | IL-19 (geometric mean) serum levels (Ps0 patients [2]; 600 mg single subcutaneous dose, Day 1 (baseline)): 57.3 pg/mL | IL-19 (geometric mean) serum levels (Ps0 patients [2]; 600 mg single subcutaneous dose, Day 15): 30.1 pg/mL | IL-19 (geometric mean) serum levels (Ps0 patients [2]; 600 mg single subcutaneous dose, Day 29): 21.8 pg/mL | IL-19 (geometric mean) serum levels (Ps0 patients [2]; 600 mg single subcutaneous dose, Day 57): 14.4. pg/ml | IL-19 (geometric mean) serum levels (Ps0 patients [2]; 600 mg single subcutaneous dose, Day 71): 15.8 pg/mL
